The supplement of paper PMC10567573

Test: protein stability index of a GFP-peptide fusion (GPS, HEK-293T) (PSI 1-6); higher = more stable
[1] = parent: IOH13764_23, c terminus: a fixed tail appended
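Note: lentivirally expressed fusions sorted by FACS into six bins by GFP to DsRed ratio, PSI derived from sequencing read proportions per bin multiplied by bin number.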

B1: CFHR2 WT (peptide)
chain: FVENGHSESSGQTHLEGDTVQIIC
protein stability index (parent: IOH13657_16, c terminus: a fixed tail appended): 2.78

B2: TLE6 WT (peptide)
chain: FWHDTLTEQLWRIFAGVHDEKAKP
protein stability index (parent: IOH13956_6, c terminus: a fixed tail appended): 1.76

B3: DYRK1B WT (peptide)
chain: KKVLNHGYDDDNHDYIVRSGERWL
protein stability index (parent: IOH14793_15, c terminus: a fixed tail appended): 2.93

B4: PDLIM4 WT (peptide)
chain: FLDERLYCESHAKARVKPPEGYDV
protein stability index (parent: IOH13881_50, c terminus: a fixed tail appended): 1.92

B5: RAB11A WT (peptide)
chain: AVPTDEARAFAEKNNLSFIETSAL
protein stability index [1]: 2.72

B6: DYRK1B WT (peptide)
chain: ARKYFERLPGGGWTLRRTKELRKD
protein stability index (parent: IOH14793_58, c terminus: a fixed tail appended): 3.49

B7: LRRC45 WT (peptide)
chain: FQTRQEMTSMSAELKMRAIQAEER
protein stability index (parent: IOH13594_66, c terminus: a fixed tail appended): 4

B8: STX5 WT (peptide)
chain: ESTIVELGSIFQQLAHMVKEQEET
protein stability index (parent: IOH14584_38, c terminus: a fixed tail appended): 2.04

B9: TRIM29 WT (peptide)
chain: RKCPVHGKTMELFCQTDQTCICYL
protein stability index (parent: IOH13948_38, c terminus: a fixed tail appended): 2.05

B10: CCND2 WT (peptide)
chain: YFKCVQKDIQPYMRRMVATWMLEV
protein stability index (parent: IOH13739_8, c terminus: a fixed tail appended): 2.47

B11: TFE3 WT (peptide)
chain: FPSDHLGDLGDPFHLGLEDILMEE
protein stability index (parent: IOH14020_85, c terminus: a fixed tail appended): 3.43

B12: RAB11A WT (peptide)
chain: AVPTDEARAFAEKNGLSFIETSAL
protein stability index [1]: 2.34

B13: GNB5 WT (peptide)
chain: YYPSGDAFASGSDDATCRLYDLRA
protein stability index (parent: IOH14466_42, c terminus: a fixed tail appended): 2.4

B14: GLT8D2 WT (peptide)
chain: QEAKLLHWNGRHKPWDFPSVHNDL
protein stability index (parent: IOH13397_52, c terminus: a fixed tail appended): 2.77

B15: LARP4 WT (peptide)
chain: WTVANMEEIKKLTTDPDLILEVLR
protein stability index (parent: IOH13489_15, c terminus: a fixed tail appended): 2.1

B16: GNB5 WT (peptide)
chain: DINSVRYYPSGDAFASGSDDATCR
protein stability index (parent: IOH14466_41, c terminus: a fixed tail appended): 3.92

B17: TCAP WT (peptide)
chain: YQRVLPLPIFTPAKMGATKEERED
protein stability index (parent: IOH13813_15, c terminus: a fixed tail appended): 2.04

B18: DYRK1B WT (peptide)
chain: YQGPGTRRLQEVLGVQTGGPGGRR
protein stability index (parent: IOH14793_62, c terminus: a fixed tail appended): 3.2

B19: ZC3H15 WT (peptide)
chain: RKADFKAGKALVISGREVFEFRPE
protein stability index (parent: IOH14032_47, c terminus: a fixed tail appended): 2.82

B20: ZC3H15 WT (peptide)
chain: ENLFTGEDLDELEEELNTLDLEE
protein stability index (parent: IOH14032_69, c terminus: native): 4.42

B21: TBX6 WT (peptide)
chain: AFLELPHGSGGSGYPAAPPAVPFA
protein stability index (parent: IOH14639_65, c terminus: a fixed tail appended): 2.31

B22: TFE3 WT (peptide)
chain: FHLGLEDILMEEEEGVVGGLSGGA
protein stability index (parent: IOH14020_87, c terminus: a fixed tail appended): 3.6

B23: LRRC45 WT (peptide)
chain: DLSAANEKNLLLQNQVDELERKFR
protein stability index (parent: IOH13594_61, c terminus: a fixed tail appended): 4.05

B24: EFHC1 WT (peptide)
chain: NIYYYLEDDSMSVIEPVVENSGIL
protein stability index (parent: IOH14055_21, c terminus: a fixed tail appended): 2.15

B25: TFE3 WT (peptide)
chain: ELPNIKREISETEAKALLKERQKK
protein stability index (parent: IOH14020_55, c terminus: a fixed tail appended): 2.4

B26: TRIM29 WT (peptide)
chain: FAEKGELRKSIFSESRKPTVSIME
protein stability index (parent: IOH13948_21, c terminus: a fixed tail appended): 2.01

B27: STX5 WT (peptide)
chain: RSEFTLMAKRIGKDLSNTFAKLEK
protein stability index (parent: IOH14584_7, c terminus: a fixed tail appended): 2.17
